According to article doi:10.1101/2025.05.21.655431 (bioRxiv, 2025):
Like-named read-outs stand apart in the source and are kept apart here.

How the values were obtained:
WRKY8 [1] = target: T1, WRKY8 (Arabidopsis thaliana, UniProt Q9FL26 1-326); test: EMSA
WRKY28 [2] = target: T2, WRKY28 (Arabidopsis thaliana, UniProt Q8VWJ2 1-318); test: EMSA
WRKY48 [3] = target: T3, WRKY48 (Arabidopsis thaliana, UniProt Q9FGZ4 1-399); test: EMSA
WRKY48 [4] = target: T3, WRKY48; test: EMSA; remark: listed apart in the source
WRKY8 [5] = target: T1, WRKY8; test: EMSA; remark: listed apart in the source
WRKY28 [6] = target: T2, WRKY28; test: EMSA; remark: listed apart in the source
His-WRKY48 (recombinant) = His-WRKY48 (recombinant) (Arabidopsis thaliana, UniProt Q9FGZ4 1-399); test: pull-down
Sequence of His-WRKY48 (recombinant) (Q9FGZ4 whole entry): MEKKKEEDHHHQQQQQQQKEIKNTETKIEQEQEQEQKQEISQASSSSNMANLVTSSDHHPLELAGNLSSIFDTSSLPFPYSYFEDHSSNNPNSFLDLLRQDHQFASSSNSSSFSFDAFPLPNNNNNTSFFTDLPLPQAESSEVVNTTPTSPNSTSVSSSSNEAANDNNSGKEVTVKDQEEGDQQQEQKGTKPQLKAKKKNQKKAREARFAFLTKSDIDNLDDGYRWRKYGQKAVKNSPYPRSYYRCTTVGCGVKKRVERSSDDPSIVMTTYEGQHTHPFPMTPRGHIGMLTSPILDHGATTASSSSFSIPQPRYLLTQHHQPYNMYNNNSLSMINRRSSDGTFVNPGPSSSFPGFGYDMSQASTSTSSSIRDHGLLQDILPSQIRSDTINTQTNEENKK

T2 sequence (Q8VWJ2 whole entry): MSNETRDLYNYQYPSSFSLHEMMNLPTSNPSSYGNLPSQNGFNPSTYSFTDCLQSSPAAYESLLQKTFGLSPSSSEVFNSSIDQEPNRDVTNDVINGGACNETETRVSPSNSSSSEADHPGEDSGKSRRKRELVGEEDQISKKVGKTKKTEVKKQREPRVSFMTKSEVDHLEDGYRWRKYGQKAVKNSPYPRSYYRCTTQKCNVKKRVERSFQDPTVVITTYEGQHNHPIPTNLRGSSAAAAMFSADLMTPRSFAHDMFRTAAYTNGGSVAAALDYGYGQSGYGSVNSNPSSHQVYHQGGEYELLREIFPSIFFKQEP
T1 sequence (Q9FL26 whole entry): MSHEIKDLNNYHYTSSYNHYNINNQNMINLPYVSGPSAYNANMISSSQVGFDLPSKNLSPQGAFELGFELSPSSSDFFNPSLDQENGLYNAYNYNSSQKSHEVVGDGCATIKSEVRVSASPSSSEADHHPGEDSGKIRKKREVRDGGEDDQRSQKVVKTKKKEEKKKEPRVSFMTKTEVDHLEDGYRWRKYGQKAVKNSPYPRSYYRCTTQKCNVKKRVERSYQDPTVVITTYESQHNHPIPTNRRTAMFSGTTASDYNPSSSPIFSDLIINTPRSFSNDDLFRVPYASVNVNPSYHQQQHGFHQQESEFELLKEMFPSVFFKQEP
T3 sequence (Q9FGZ4 whole entry): as the sequence (Q9FGZ4 whole entry) above

B1: CIPK6 promoter P2 (GGTCA) (dsDNA)
DNA 1: GTTTAATTACTATCACACCGGTCACGCTGGTTTACC
DNA 2: GGTAAACCAGCGTGACCGGTGTGATAGTAATTAAAC
B1: no binding (WRKY8 [1]); no binding (WRKY28 [2]).

B2: CIPK6 promoter P1 (TTGACA) (dsDNA)
DNA 1: CATCGCTATCCAAATAATTGACAAACTCGAAGCCGCC
DNA 2: GGCGGCTTCGAGTTTGTCAATTATTTGGATAGCGATG
B2: no binding (WRKY8 [1]); no binding (WRKY28 [2]); binds (WRKY48 [3]).

B3: CIPK6 promoter P1+P2 (dsDNA)
DNA 1: TAAATCGCATCGTGACCGGTCATAAAAAGACACGTGTCGTCATCGCTATCCAAATAATTGACAAACTCGAAGCCGCCAAGGG
DNA 2: CCCTTGGCGGCTTCGAGTTTGTCAATTATTTGGATAGCGATGACGACACGTGTCTTTTTATGACCGGTCACGATGCGATTTA
B3: binds (WRKY48 [4]); no binding (WRKY8 [5]); no binding (WRKY28 [6]).

B4: GST-MPK3 (recombinant) (enzyme, Arabidopsis thaliana, UniProt Q39023 1-370, looked up)
chain: MNTGGGQYTDFPAVETHGGQFISYDIFGSLFEITSKYRPPIIPIGRGAYGIVCSVLDTETNELVAMKKIANAFDNHMDAKRTLREIKLLRHLDHENIIAIRDVVPPPLRRQFSDVYISTELMDTDLHQIIRSNQSLSEEHCQYFLYQLLRGLKYIHSANIIHRDLKPSNLLLNANCDLKICDFGLARPTSENDFMTEYVVTRWYRAPELLLNSSDYTAAIDVWSVGCIFMELMNRKPLFPGKDHVHQMRLLTELLGTPTESDLGFTHNEDAKRYIRQLPNFPRQPLAKLFSHVNPMAIDLVDRMLTFDPNRRITVEQALNHQYLAKLHDPNDEPICQKPFSFEFEQQPLDEEQIKEMIYQEAIALNPTYG
B4: binds (His-WRKY48 (recombinant)).
